Measured values taken from the supplement of paper PMC12636428.

system: Saccharomyces cerevisiae; experiment: transcriptional activation domain activity (GFP:mCherry ratio, weighted mean of sorted bins, harmonized to initial dataset scale) (arbitrary fluorescence ratio units); higher = stronger transcriptional activation; conditions: beta-estradiol 1 µM; induction time 4 h
Outline: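 Barcoded protein tiles fused to an estradiol-inducible synthetic transcription factor were integrated at the yeast URA3 locus, in diploids carrying a GFP reporter. Cultures were diluted 1:5 into SC with 1 uM beta-estradiol, held 4 hours at 30 °C, sorted into 8 bins by GFP:mCherry ratio, and barcodes sequenced. Tiles under 50 reads were discarded. Activation activity is the read-weighted mean of bin median fluorescence, averaged across barcodes, then linearly mapped onto the initial dataset scale.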

Sequence	transcriptional activation domain activity
SVTSEAIQVCVAARAREGEANRAVRNVIAEALRVPKSNVQVAKGLKSREKTLI	43300
NTLSRTKAYMTFILAFVAITSIVRFTGSTLYLIARFLLGKRAWITYLIYVYLY	52700
SNFASKVNTQLNLLQHSSSNSNFLDASPYDFNKIFMNNFENYDYETDEGYAED	63600
SKDLTRLTLISIMLEKCEGDYSAACVEQYLTVLLKFAVLAVVSDQTLHLSILA	52000
NLSPLVLPLWVQLNIYFGIVFLWILAPLVFYYNVWNAQSFPFLSNSIFQLLPN	64600
YFRAEAMKTFFSRNYWQLEVRLYVPTKRKGIFHGKDWRINVLLGMWWVVVHIA	55100
PSPRRRRDEDRPRRGGGGFRWKGEERRDRRERPRSPRPEKRRRSKSPRPEKKK	27500
NIQSFDAIYFAALQVIIVSSANGWSPLMYQMMDSEFFVSCVFFIICIVVLNFW	61500
GMGTAAGKSRARAAAKKTTTKGKESKGKSKSQVGTRRSVRGKRGAREVGDASS	27300
YMIGLLFRTYFKLKSLNLCKNVLRAVSVSELPSLSEFPKAHQVTFRYYTGVLS	70100
VKPEAKAEHIKENTKPKPLGTKRANKAAEAPAPAAKKPVKKAAVPKKAAAAPA	59600
MPLFCSISPSFHESVHFWFFFFFFLSLTLFPSFRLVSYFCTFFLFLNWVNRGF	44800
IIRLCSYFQRYVDLPIHNIYDRIAAHASTEILFYANALKEDFFRFGLVYRLYA	59200
AMLMSLFVSVFCVYGVFIHVAASALQYQIVFFSPCIYMMLICGLSFLCCESPR	75700
YSRLILSVIIQFYQRCSDRFQDVVSRNSLDLTDTRLLVSARWAQRENLVVCLS	49600
KSPVKRKPKAEGASADGSPKKRKSKGEAADADGTPKKRGRKPKKAEPQPEIQG	33700
LCVDVWDGFFLSPLNLVAISFLIFLPFHCWVINAPLSILCLTSIMGFPSFLFF	70200

Sequence	transcriptional activation domain activity
DAPAQPEPADDGEEAEEVDEPKGKKGKGGGKKGGGKGKGGKGKEKKADKAAAE	29400
THYLCFIFSPRKLWPMNTQVSIPLFHLLILPVSPWIKQLYWLVFWNLFFVWWM	56200
GNIHFTLRMALSDPDMTTVRPVLDLLFGLTHFFFVVNTGLFDLIQSCFKIIEA	55100
PSCCLSFFPDFSFFSVFFSLLVYFPFRALYDLLFVDLLLILFLFILIFFHLFL	33000
IAHRYLVGYVYVRTHSQTGGLVYIWLLKRLGSLLSLQPILLGLIFLSRHLWIE	55000
DKRLENAQTLIPDGMKVRPMEDCITEAPTLIMARFNIVLLYLKTRVVLHRNYL	62400
LLDELMNQTKVLQETLDFSLVTPTPHHNDDYKIHGSAYPGGETPAQQHEKLSY	35700
PSSLVAQGQCAVAGDDVLEALAIRGIDFKLYAGILLLIALVYRLLLYIVLVFK	66100
RRSHRSHHSSRSRDEEGKERRSSRGEDEKRAHRSRDEDEGRRRRRSHRDRDEE	18900
GLVSLDRLLVNRFGEALLSMGRAPTWSWKRALRAVLLSLVELSARCEFKLGSN	48400
LLRQQLVYTNHIYLYYFAIISNTLIRFIWILYIPARGPDIILRTFIAALFEML	54200
ITQVEDRSKGYLIGLVKELVAEYVEDLNALVLLACSLKVGIQVSSAAGMIYKK	53600
MQIQALAFPSYCQNTLFMPCTSIVCLDFFFLLHIFPLVPRSLDVFFLFLLVHL	76400
MWTVLVGFIRGFLLLLWHLAYPFHFFLYFQLILSSHRLEWLISLFVDAMTGIA	33400
GHWSYFRNSSMILNFFYKNIIGIGVLFWFQIFCGWSTTYVFAYVYLLFWNVFW	51500
RIRKFTVLGATIVEPFMECVLNGVLGAFGFWVFFGVPRLWFFGWHLCYWLLVD	86000
MCTLKLLVLLRIYFPTYISFPFFSPSLLSKCHSFISFSYVPWSLVTFLIYLPS	75600
